Measurements published in article PMC2366074.

Molecular target: T1, inositol monophosphatase (IMPase) (UniProt P29218)
T1 sequence: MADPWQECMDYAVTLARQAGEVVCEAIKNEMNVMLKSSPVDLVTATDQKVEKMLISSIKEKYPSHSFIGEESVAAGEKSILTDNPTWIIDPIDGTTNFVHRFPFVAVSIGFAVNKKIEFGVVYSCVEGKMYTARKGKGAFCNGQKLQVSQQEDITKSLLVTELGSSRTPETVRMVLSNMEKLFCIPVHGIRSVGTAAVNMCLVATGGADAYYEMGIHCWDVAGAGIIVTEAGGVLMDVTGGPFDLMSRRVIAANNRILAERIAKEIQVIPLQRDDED

B1: recombinant calbindin (natural protein)
chain: MAESHLQSSLITASQFFEIWLHFDADGSGYLEGKELQNLIQELQQARKKAGLELSPEMKTFVDQYGQRDDGKIGIVELAHVLPTEENFLLLFRCQQLKSCEEFMKTWRKYDTDHSGFIETEELKNFLKDLLEKANKTVDDTKLAEYTDLMLKLFDSNNDGKLELTEMARLLPVQENFLLKFQGIKMCGKEFNKAFELYDQDGNGYIDENELDALLKDLCEKNKQDLDINNITTYKKNIMALSDGGKLYRTDLALILCAGDN
IMPase activity in brain homogenates (Pi release from inositol-1-phosphate) with 20 uM recombinant calbindin: 1.66 fold
